B1: LCOR (parent)
chain: PCAGSTSLSHSPGCSSTQGNGRPG
B2: PTPRD (parent)
chain: LTKLREMGREKCHQYWPAERSARY

Variants of: B1
Experiment: protein stability index of a GFP-peptide fusion (GPS, HEK-293T) (PSI 1-6); higher = more stable
Conditions: c terminus: a fixed tail appended
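Note: lentivirally expressed fusions sorted by FACS into six bins by GFP to DsRed ratio, PSI derived from sequencing read proportions per bin multiplied by bin number.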

Protein stability index, by site and new letter:
S5: W 3.35 | N 2.67 | P 2.15 | D 4.27 | Y 2.41 | T 1.75 | R 2.71 | M 2.9 | A 2.98 | G 4.2 | K 4.35 | F 3.35 | E 3.94 | I 1.61
C2: F 3.99 | T 3.63 | R 5.27 | H 4.99 | Q 4.65 | S 3.28 | I 2.92 | A 2.92 | L 4.76 | K 4.48 | W 4.09 | Y 3.55 | N 4.74 | V 4.04
T6: P 3.69 | W 2.84 | D 4.35 | R 4.93 | E 5.02 | K 2.71 | F 2.91 | Y 3.39 | V 3.9 | H 3.11 | S 2.77
A3: Q 4.08 | K 4.69 | Y 3.21 | D 4.98 | L 3.93 | G 3.4 | E 2.77 | I 4.1 | S 3.73 | V 3.87 | M 3.63 | H 4 | T 3.06 | C 4.78
P1: I 3.48 | C 4.16 | N 4.33 | H 2.48 | E 3.77 | M 3.39 | D 4.08 | R 3.63 | L 3.57 | K 4.35 | F 3.04 | Y 2.96 | S 3.12 | A 2.61
G4: M 2.92 | L 2.43 | F 1.98 | K 4.38 | T 3.71 | A 2.7 | I 2.28 | R 4.25 | Q 4.2 | H 3.52 | E 4.2 | P 4.17 | S 3.56
S7: F 2.72 | L 1.64 | N 3.43 | D 4.82 | K 4 | A 2.19 | T 3.19 | Q 3.23 | M 1.82 | H 2.42 | I 1.92

Variants of: B2
Experiment: as above
Conditions: c terminus: a fixed tail appended

Protein stability index of substitutions, site by site:
A22: K 2.65 | M 2.33 | F 1.58 | V 2.64 | R 2.42 | Y 2.23 | S 2.16 | E 2.53 | G 2.33 | C 2.15 | H 2.21 | T 3.02 | N 2.57 | D 2.4 | P 2.65 | Q 2.54 | W 1.83 | I 2.08 | L 2.12
C12: G 2.98 | S 2.66 | V 2.35 | H 2.83 | Q 2.83 | K 2.27 | Y 2.98 | W 2.25 | R 2.51 | P 3.09 | N 3.04 | T 3.38 | L 2.39 | M 2.1 | F 2.58 | I 2.35
Y24: D 3.55 | F 2.21 | N 3.2 | V 2.41 | M 2.12 | T 2.35 | P 2.5 | A 2.59 | R 2.7 | L 2.31 | C 2.65 | Q 2.65 | H 2.75 | G 2.67 | S 3.01 | K 3.02 | I 2.29 | W 2.46 | E 3.1
E19: K 2.75 | W 2.15 | C 2.21 | H 2.06 | P 2.29 | V 1.67 | Q 2.2 | M 2.19 | Y 1.86 | G 2.18 | F 2.29 | N 2.46 | T 2.21 | S 2.29 | A 2.31 | L 1.7 | R 2.56 | D 2.81 | I 1.91
P17: G 2.29 | H 1.75 | K 2.58 | T 2.32 | F 1.99 | Y 2.17 | C 1.79 | R 2.37 | D 2.79 | I 2.25 | M 1.97 | N 1.84 | W 2.04 | L 2.01 | V 1.74 | A 2.12 | S 2.09 | Q 2.16 | E 2.5
A18: K 2.48 | L 1.87 | R 2.13 | C 2.31 | G 2.06 | Y 1.97 | Q 2.53 | V 2.26 | I 2.21 | N 2.16 | P 2.39 | T 2.27 | M 1.97 | S 2.17 | E 2.73 | H 2.19 | W 2.16 | D 2.49 | F 2.21
S21: V 2.17 | D 2.83 | Q 2.08 | E 2.15 | L 1.96 | H 1.91 | F 2 | A 2.58 | K 2.72 | M 1.96 | Y 2.61 | W 1.94 | T 2.77 | I 2.99 | P 2.24 | G 1.91 | C 1.7 | N 2.17 | R 2.16
R23: N 2.24 | Q 1.74 | T 2.4 | D 3.39 | K 2.49 | Y 1.6 | L 2.09 | C 2.06 | M 1.69 | W 1.68 | F 1.79 | E 2.67 | S 1.96 | G 2.38 | H 2.26 | I 1.99 | V 1.85 | P 3.02 | A 2.42
H13: P 2.43 | C 1.86 | S 2.28 | Q 2.83 | N 2.79 | T 2.65 | W 1.77 | M 1.97 | R 2.31 | A 2.66 | D 3.17 | L 2.77 | Y 2.38 | K 2.53 | I 2.33 | F 2.15 | V 2.02 | G 2.66 | E 2.74
W16: C 2.8 | G 3.25 | A 3.15 | Q 3.26 | D 3.8 | S 2.84 | K 3.03 | N 3.5 | P 3.27 | R 3.29 | F 2.91 | M 2.85 | H 2.91 | T 2.6 | L 2.96 | Y 2.58 | I 2.7 | E 3.47 | V 2.76
Q14: P 1.69 | C 1.82 | V 2.61 | S 2.68 | T 2.62 | A 2.46 | E 3.05 | M 2.04 | W 1.41 | G 2.46 | K 2.48 | L 2.5 | N 2.64 | I 2.27 | R 2.04 | H 2.95 | D 2.47 | F 1.84 | Y 1.85
Y15: T 2.82 | M 2.53 | Q 2.79 | F 2.86 | C 2.6 | I 2.59 | P 2.64 | A 2.93 | G 3.46 | S 2.92 | R 2.82 | N 3.19 | K 3.1 | W 1.99 | E 3.54 | H 3.41 | D 3.31 | L 2.46
R20: V 2.03 | G 2.88 | E 2.69 | P 2.77 | I 1.86 | H 2.2 | L 2.34 | N 2.62 | Q 2.38 | A 2.05 | Y 2.33 | T 2.66 | C 2.42 | M 2.25 | K 2.28 | S 2.3 | F 1.93 | D 2.92 | W 1.51
